Measurements taken from the supplement of paper PMC9112550, “Optimization of the antimicrobial peptide Bac7 by deep mutational scanning” (BMC Biology, 2022).

tested on: Escherichia coli TOP10; assay: shrunken log2 fold change of peptide-encoding DNA abundance (4.5 h post-induction vs induction); higher = less antimicrobial activity (less host growth inhibition); details: time post-induction: 4.5 h; library: site-saturation at positions 5, 18, 19, 20
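Further: peptides expressed intracellularly from a pBAD plasmid library in pooled LB shake-flask culture, induced with 0.3% L-arabinose, DNA abundance read by NGS, three biological replicates, DESeq2 with apeglm shrinkage.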

Sequence	shrunken log2 fold change
RRIRFRPPRLPRPRPRPPSRPRP	0.551
RRIRGRPPRLPRPRPRPWPMPRP	0.31
RRIRNRPPRLPRPRPRPPSIPRP	-0.0153
RRIRARPPRLPRPRPRPSFIPRP	-0.177
RRIRSRPPRLPRPRPRPLLSPRP	-0.051
RRIRVRPPRLPRPRPRPPEEPRP	0.0908
RRIRPRPPRLPRPRPRPSNDPRP	-0.288
RRIRGRPPRLPRPRPRPPWAPRP	0.769
RRIRKRPPRLPRPRPRPSGDPRP	0.485
RRIRLRPPRLPRPRPRPDHVPRP	-0.00963
RRIRYRPPRLPRPRPRPSCPPRP	-0.851
RRIRCRPPRLPRPRPRPEKEPRP	-0.0494
RRIRMRPPRLPRPRPRPRYTPRP	0.338
RRIRLRPPRLPRPRPRPKWGPRP	0.0532
RRIRTRPPRLPRPRPRPKNKPRP	-0.525
RRIRSRPPRLPRPRPRPRPRPRP	0.815
RRIRCRPPRLPRPRPRPWMPPRP	-0.178
RRIRDRPPRLPRPRPRPPICPRP	-0.224
RRIRWRPPRLPRPRPRPTIQPRP	0.0488
RRIRNRPPRLPRPRPRPPDKPRP	0.182
RRIRKRPPRLPRPRPRPTMFPRP	0.165
RRIRIRPPRLPRPRPRPQMFPRP	-0.65
RRIRARPPRLPRPRPRPQYPPRP	-0.414
RRIRKRPPRLPRPRPRPFLCPRP	0.158
RRIRPRPPRLPRPRPRPCRLPRP	-0.29

Sequence	shrunken log2 fold change
RRIRSRPPRLPRPRPRPRAAPRP	0.504
RRIRHRPPRLPRPRPRPTLNPRP	0.134
RRIRFRPPRLPRPRPRPNWVPRP	-0.126
RRIRHRPPRLPRPRPRPCHLPRP	-0.113
RRIRARPPRLPRPRPRPLVMPRP	0.0657
RRIRERPPRLPRPRPRPVSLPRP	-0.013
RRIRMRPPRLPRPRPRPCRTPRP	-0.129
RRIRYRPPRLPRPRPRPQKIPRP	-0.524
RRIRRRPPRLPRPRPRPNAWPRP	0.597
RRIRCRPPRLPRPRPRPGVHPRP	-0.108
RRIRSRPPRLPRPRPRPTLNPRP	-0.0269
RRIRQRPPRLPRPRPRPAVHPRP	-0.0227
RRIRRRPPRLPRPRPRPAYPPRP	0.0273
RRIRNRPPRLPRPRPRPFFFPRP	0.0988
RRIRKRPPRLPRPRPRPPHCPRP	1.19
RRIRIRPPRLPRPRPRPPYFPRP	-0.25
RRIRFRPPRLPRPRPRPYPWPRP	-0.9
RRIRYRPPRLPRPRPRPCKWPRP	-0.063
RRIRARPPRLPRPRPRPFFHPRP	-0.0215
RRIRHRPPRLPRPRPRPEWMPRP	0.188
RRIRHRPPRLPRPRPRPNCWPRP	0.612
RRIRPRPPRLPRPRPRPMFIPRP	-0.439
RRIRKRPPRLPRPRPRPDVQPRP	-0.00299
RRIRDRPPRLPRPRPRPCDIPRP	-0.11
RRIRWRPPRLPRPRPRPVNTPRP	-0.0848

Sequence	shrunken log2 fold change
RRIRQRPPRLPRPRPRPFCGPRP	0.0215
RRIRWRPPRLPRPRPRPFYPPRP	-0.239
RRIRMRPPRLPRPRPRPYMTPRP	-0.178
RRIRRRPPRLPRPRPRPAPQPRP	1.39
RRIRPRPPRLPRPRPRPKYHPRP	-0.317
RRIRYRPPRLPRPRPRPENMPRP	-0.134
RRIRGRPPRLPRPRPRPTQIPRP	1.38
RRIRIRPPRLPRPRPRPKTHPRP	-0.203
RRIRNRPPRLPRPRPRPFQVPRP	-0.134
RRIRQRPPRLPRPRPRPAAAPRP	0.258
RRIRMRPPRLPRPRPRPDKVPRP	0.359
RRIRDRPPRLPRPRPRPQDHPRP	0.0862
RRIRFRPPRLPRPRPRPGADPRP	0.187
RRIRPRPPRLPRPRPRPWMMPRP	-0.03
RRIRARPPRLPRPRPRPEIDPRP	1.36
RRIRDRPPRLPRPRPRPNLNPRP	-0.229
RRIRGRPPRLPRPRPRPWISPRP	-0.191
RRIRGRPPRLPRPRPRPCTEPRP	0.509
RRIRKRPPRLPRPRPRPVFVPRP	0.141
RRIRDRPPRLPRPRPRPANYPRP	-0.148
RRIRYRPPRLPRPRPRPEDWPRP	-0.252
RRIRCRPPRLPRPRPRPVLEPRP	-0.249
RRIRLRPPRLPRPRPRPTANPRP	0.329
RRIRGRPPRLPRPRPRPTTEPRP	0.836
RRIRSRPPRLPRPRPRPTCAPRP	0.301

Sequence	shrunken log2 fold change
RRIRERPPRLPRPRPRPEQTPRP	0.111
RRIRKRPPRLPRPRPRPQNTPRP	0.00556
RRIRFRPPRLPRPRPRPWFNPRP	-0.897
RRIRYRPPRLPRPRPRPSSRPRP	-0.0331
RRIRYRPPRLPRPRPRPLYWPRP	-0.943
RRIRVRPPRLPRPRPRPNTRPRP	0.02
RRIRMRPPRLPRPRPRPPDDPRP	0.0932
RRIRQRPPRLPRPRPRPGKTPRP	-0.00992
RRIRGRPPRLPRPRPRPDRDPRP	0.326
RRIRYRPPRLPRPRPRPEPRPRP	0.408
RRIRQRPPRLPRPRPRPEGPPRP	0.172
RRIRCRPPRLPRPRPRPTLRPRP	0.15
RRIRARPPRLPRPRPRPTAEPRP	1.3
RRIRRRPPRLPRPRPRPNMIPRP	-0.914
RRIRERPPRLPRPRPRPYVHPRP	-0.00146
RRIRVRPPRLPRPRPRPQYDPRP	-0.729
RRIRNRPPRLPRPRPRPWIIPRP	-0.429
RRIRHRPPRLPRPRPRPAEGPRP	-0.00235
RRIRCRPPRLPRPRPRPVVNPRP	-0.18
RRIRNRPPRLPRPRPRPYDRPRP	-0.12
RRIRIRPPRLPRPRPRPVDCPRP	0.0257
RRIRYRPPRLPRPRPRPTQGPRP	0.0351
RRIRHRPPRLPRPRPRPSAFPRP	-0.435
RRIRRRPPRLPRPRPRPERWPRP	0.613
RRIRHRPPRLPRPRPRPDIRPRP	0.0226

Sequence	shrunken log2 fold change
RRIRMRPPRLPRPRPRPMESPRP	-0.00987
RRIRWRPPRLPRPRPRPCMEPRP	-0.0563
RRIRARPPRLPRPRPRPTWGPRP	0.625
RRIRDRPPRLPRPRPRPPHGPRP	0.294
RRIRARPPRLPRPRPRPESFPRP	0.807
RRIRIRPPRLPRPRPRPHYFPRP	-0.173
RRIRFRPPRLPRPRPRPHSHPRP	-0.939
RRIRSRPPRLPRPRPRPKMWPRP	0.458
RRIRKRPPRLPRPRPRPQWYPRP	-0.145
RRIRTRPPRLPRPRPRPFRGPRP	-0.175
RRIRDRPPRLPRPRPRPKKHPRP	-0.0344
RRIRYRPPRLPRPRPRPNMSPRP	-0.675
RRIRVRPPRLPRPRPRPTQLPRP	0.504
RRIRGRPPRLPRPRPRPQHCPRP	0.0523
RRIRTRPPRLPRPRPRPRSKPRP	-0.101
RRIRQRPPRLPRPRPRPDKAPRP	0.517
RRIRKRPPRLPRPRPRPPFHPRP	0.307
RRIRDRPPRLPRPRPRPASEPRP	0.453
RRIRTRPPRLPRPRPRPVKNPRP	-0.284
RRIRERPPRLPRPRPRPNHAPRP	-0.239
RRIRRRPPRLPRPRPRPPMSPRP	0.142
RRIRDRPPRLPRPRPRPLNSPRP	0.0283
RRIRTRPPRLPRPRPRPMTKPRP	-0.0084
RRIRERPPRLPRPRPRPCCMPRP	-0.831
RRIRKRPPRLPRPRPRPDVDPRP	1.8

Sequence	shrunken log2 fold change
RRIRARPPRLPRPRPRPKQWPRP	0.587
RRIRDRPPRLPRPRPRPMSVPRP	-0.00308
RRIRPRPPRLPRPRPRPKNWPRP	0.261
RRIRPRPPRLPRPRPRPPVSPRP	0.0379
RRIRWRPPRLPRPRPRPWLYPRP	-0.128
RRIRIRPPRLPRPRPRPGCLPRP	1.56
RRIRIRPPRLPRPRPRPCAYPRP	-0.0396
RRIRQRPPRLPRPRPRPMSWPRP	-0.0294
RRIRDRPPRLPRPRPRPNYCPRP	0.0253
RRIRMRPPRLPRPRPRPSQYPRP	-0.191
RRIRDRPPRLPRPRPRPYVHPRP	-0.407
RRIRSRPPRLPRPRPRPCSLPRP	-0.484
RRIRYRPPRLPRPRPRPWFQPRP	-0.00061
RRIRGRPPRLPRPRPRPLPYPRP	-0.086
RRIRDRPPRLPRPRPRPACLPRP	0.723
RRIRRRPPRLPRPRPRPFITPRP	-0.257
RRIRARPPRLPRPRPRPGCSPRP	0.505
RRIRKRPPRLPRPRPRPIDYPRP	-0.0337
RRIRHRPPRLPRPRPRPCWQPRP	-0.065
RRIRLRPPRLPRPRPRPFTDPRP	-0.317
RRIRPRPPRLPRPRPRPWADPRP	0.0868
RRIRDRPPRLPRPRPRPHYNPRP	-0.635
RRIRCRPPRLPRPRPRPNLAPRP	-0.122
RRIRTRPPRLPRPRPRPGSHPRP	-0.336
RRIRLRPPRLPRPRPRPDIHPRP	0.126
